Data on 14 molecules can be found in patent US20160024219A1 (Sanofi, published 2016).

Assay [1] deals with T1, CD52 peptide #741.
T1 construct: also called CD52 peptide #741 chip
Kind of assay: BIACORE (SPR), CD52 peptide #741 chip; week 0, reference of the normalization. In general terms: In SPR one partner is held on a chip, and binding of the other changes the refractive index at the surface.
Procedure: (§1) The proteins (85 μg) were diluted in PBS, pH 7.2, to 0.4 mg/ml, and incubated at 45° C. for 4 weeks. Their binding affinity to CD52 peptide was measured on BIACORE™.

Assay [2] deals with T1, CD52 peptide #741. The experiment in a line: BIACORE (SPR), CD52 peptide #741 chip; antibody after 2 weeks at 45C, pH 7.2 in PBS.
Procedure: as §1
Assay [3] concerns the target T1, CD52 peptide #741. Kind of assay: BIACORE (SPR), CD52 peptide #741 chip; antibody after 4 weeks at 45C, pH 7.2 in PBS.
Procedure: as §1
Assay [4] has as its target T1, CD52 peptide #741. Kind of assay: BIACORE (SPR), CD52 peptide #741 chip, preliminary constant; antibody at week 0 (before incubation).
Procedure: as §1
Assay [5] concerns the target T1, CD52 peptide #741. Kind of assay: BIACORE (SPR), CD52 peptide #741 chip, preliminary constant; antibody after 2 weeks at 45C, pH 7.2 in PBS.
Procedure: as §1
For assay [6], the target named is T1, CD52 peptide #741. The experiment in a line: BIACORE (SPR), CD52 peptide #741 chip, preliminary constant; antibody after 4 weeks at 45C, pH 7.2 in PBS.
Procedure: as §1
Assay [7] concerns the target T2, CD52 peptide mimotope (CGQNDTSQTSSPSAD).
T2 construct: Immobilized at a low level on a CM5 chip via thiol chemistry using the N-terminal Cys; also called CD52 peptide chip
T2 peptide: CGQNDTSQTSSPSAD
Kind of assay: BIACORE, CD52 peptide on CM5 chip; antibody from HEK293.
Procedure: (§2) Several concentrations of anti-CD52 antibody made in HBS-EP running buffer (1 to 20 nM) were injected over the surface to monitor the binding. Kinetic analysis was performed using Scrubber2 software.

Assay [8] shares this target. The experiment in a line: BIACORE, CD52 peptide on CM5 chip; antibody from CHO; CHO-produced Ab26.
Procedure: as §2
Assay [9] shares this target. The experiment in a line: BIACORE (SPR), CD52 peptide, antibody purified from CHO cells; inset table.
Procedure: as §2
The target is the same in assay [10]. Kind of assay: BIACORE (SPR), CD52 peptide, purified antibody; concentrations used for fit 7.5nM - 0.2nM.
For assay [11], the target named is T1, CD52 peptide #741. The experiment in a line: BIACORE (SPR), CD52 peptide #741 chip, apparent KD; antibody after 2 weeks at 37C, 3 component buffer pH 7.5.
Source text: (§3) Aliquots were taken at Week 2 and Week 4 (T2 and T4) to assess their affinity to CD52 peptide by BIACORE™.
The target in assay [12] is T1, CD52 peptide #741. Kind of assay: BIACORE (SPR), CD52 peptide #741 chip, apparent KD; antibody after 4 weeks at 37C, 3 component buffer pH 7.5.
Source text: as §3
The target of assay [13] is T1, CD52 peptide #741. The experiment in a line: BIACORE (SPR), CD52 peptide #741 chip, apparent KD; table 'after 37C incubation', T0, 3 component buffer pH 7.5.
Source text: as §3
For assay [14], the target named is T1, CD52 peptide #741. The experiment in a line: BIACORE (SPR), CD52 peptide #741 chip, apparent KD; antibody after 2 weeks at 45C, 3 component buffer (graph title: 45C pH7.4).
Source text: as §3
In assay [15] the target is T2, CD52 peptide mimotope (CGQNDTSQTSSPSAD). The experiment in a line: BIACORE (SPR), CD52 peptide, purified antibody; concentrations used for fit 240nM - 0.4nM.
For assay [16] the target is unchanged. The experiment in a line: BIACORE (SPR), CD52 peptide, purified antibody; concentrations used for fit 240nM - 0.4nM; sheet's note to the asterisk: for more accurate KD, a higher concentration range should be used.
Assay [17] has the same target. Kind of assay: BIACORE, CD52 peptide on CM5 chip.
Procedure: as §2
For assay [18] the target is unchanged. The experiment in a line: BIACORE (SPR), CD52 peptide, purified antibody; concentrations used for fit 240nM - 1.9nM.
Assay [19] has the same target. Kind of assay: BIACORE, CD52 peptide on CM5 chip; antibody from CHO; CHO-produced Ab1; higher concentrations, up to 1900 nM.
Procedure: as §2
For assay [20] the target is unchanged. The experiment in a line: BIACORE, CD52 peptide on CM5 chip; antibody from HEK293; HEK293-produced Ab1; higher concentrations, up to 1900 nM.
Procedure: as §2
Assay [21] has the same target. The experiment in a line: BIACORE (SPR), CD52 peptide, antibody purified from CHO cells; inset table, column ka; the sheet prints no unit, unit from Table 5 of the text.
Procedure: as §2
For assay [22] the target is unchanged. Kind of assay: BIACORE (SPR), CD52 peptide, antibody purified from CHO cells; inset table, column kd; the sheet prints no unit, unit from Table 5 of the text.
Procedure: as §2
The target is the same in assay [23]. Kind of assay: BIACORE (SPR), CD52 peptide, purified antibody; concentrations used for fit 240nM - 1.9nM; sheet's note to the asterisk: for more accurate KD, a higher concentration range should be used.

Residue numbers refer to the chain shown, from its start. Where “and” joins values, the source holds several entries; their conditions need not be identical. Equal entries are not always repeated.

B1: Ab11 (antibody, human IgG1, kappa, V domains shown)
VH: EVQLVESGGGLVQPGGSLRLSCAASGFPFSNYWMNWVRQAPGKGLEWVGQIRLKSNNYATHYAESVKGRFTISRDDSKNSLYLQMNSLKTEDTAVYYCTPIDYWGQGTTVTVSS
VL: DIVMTQTPLSLSVTPGQPASISCKSSQSLLYSNDKTYLNWVLQKPGQSPQRLIYLVSKLDSGVPDRFSGSGSGTDFTLKISRVEAEDVGVYYCVQGSHFHTFGQGTKLEIKR
As for B1, the “%T0 (affinity relative to T0)” value was found to be 100% in [1], 24.9% in assay [2] and 46.5% in [3]. The Kd in assay [4] is 4.12 nM; in [5] it was 16.5 nM; in [6], 8.85 nM.

B2: Ab14 (antibody, human IgG1, kappa, V domains shown)
VH: B1 VH
VL: B1 VL with D34H
Turning to B2, the values for the Kd in assay [4], in assay [5] and in [6] were 3.5 nM, 8.97 nM and 33.3 nM, respectively.

B3: Ab26 (antibody, human IgG1, kappa, V domains shown)
VH: B1 VH
VL: B1 VL with D34G
notes: Humanized anti-human CD52 monoclonal antibody; made in HEK293 and in CHO cells; also called CTL; CTL1
Take B3: the Kd in [7] is 1.7 nM and 2.2 nM; in assay [8] it was 2.6 nM; in assay [9] it was 2.61 nM; in [10], 2.4 nM and 2.8 nM; in [4], 3 nM; in [5] it was 13.4 nM. The Kd in [6] is 25.4 nM; in [11] it was 10 nM and 8.9 nM; in [12], 17.4 nM and 18.3 nM; in [13] it was 4.3 nM and 4.2 nM; in assay [14], 28 nM.

B4: Ab20 (antibody, human IgG1, kappa, V domains shown)
VH: B1 VH
VL: B1 VL with D34Q
For the molecule B4, the Kd in assay [4] amounted to 3.49 nM; in assay [5], 6.8 nM.

B5: Ab21 (antibody, human IgG1, kappa, V domains shown)
VH: B1 VH
VL: B1 VL with D34R
Regarding B5, the Kd in [4] turned out to be 2.05 nM; in assay [6] it was 4.15 nM.

B6: Ab22 (antibody, human IgG1, kappa, V domains shown)
VH: B1 VH
VL: B1 VL with D34S
As to B6, the results for the Kd in [4] and in assay [6] were 2.44 nM and 187 nM, respectively.

B7: Ab16 (antibody, human IgG1, kappa, V domains shown)
VH: B1 VH
VL: B1 VL with D34K
As to B7, the results for the Kd in assay [4] and in assay [5] were 2.77 nM and 7.17 nM, respectively.

B8: Ab25 (antibody, human IgG1, kappa, V domains shown)
VH: B1 VH
VL: B1 VL with D34Y
What is called koff is the first-order rate constant of dissociation. High values mean a short-lived complex, low ones a long-lived complex. A word on the kon: it is the second-order rate constant of association. In [15], B8 registered a koff of 0.073 s⁻¹ and a kon of 700000 M⁻¹ s⁻¹. Moreover, in [16], the Kd amounted to 111 nM.

B9: Ab12 (antibody, human IgG1, kappa, V domains shown)
VH: B1 VH
VL: B1 VL with D34E
In the case of B9, in assay [15], the Kd came to 39.8 nM, the off-rate (koff) turned out to be 0.045 s⁻¹ and the kon came to 1.1e+06 M⁻¹ s⁻¹.

B10: Ab1 (antibody, human IgG1, kappa, V domains shown)
VH: B1 VH
VL: B1 VL with N33D, D34G
notes: made in HEK293 and in CHO cells
For the molecule B10, in assay [17], the “fold reduction in affinity compared to Ab26” value was more than 400 fold. In addition, the Kd in assay [9] was determined as 1250 nM; in assay [19], 1250 nM; in assay [20], 1480 nM; in assay [23], 366 nM. Moreover, the koff worked out at 0.421 s⁻¹ in assay [18], 0.383 s⁻¹ in assay [19], 0.58 s⁻¹ in assay [20] and 0.383 s⁻¹ in assay [22]. Besides, the kon in assay [18] came out at 1.1e+06 M⁻¹ s⁻¹; in assay [19], 300000 M⁻¹ s⁻¹; in assay [20], 400000 M⁻¹ s⁻¹; in assay [21], 306000 M⁻¹ s⁻¹.

B11: Ab24 (antibody, human IgG1, kappa, V domains shown)
VH: B1 VH
VL: B1 VL with D34V
Regarding B11, the “%T0 (affinity relative to T0)” value was 100% in assay [1], 30.5% in assay [2] and 29.8% in assay [3]. Besides, the Kd came to 5.6 nM in assay [10]; 5.15 nM in assay [4]; 16.9 nM in assay [5]; 17.2 nM in assay [6]; 10.5 nM in [11]; 11.3 nM in assay [12]. Also, the Kd in assay [13] was 7 nM. The molecule also yielded a koff in assay [10] of 0.019 s⁻¹. This molecule also displayed an on-rate (kon) in assay [10] of 3.4e+06 M⁻¹ s⁻¹.

B12: Ab4 (antibody, human IgG1, kappa, V domains shown)
VH: B1 VH
VL: B1 VL with N33Q, D34G
notes: made in HEK293 cells
In assay [18], B12 yielded a koff of 0.284 s⁻¹ and a kon of 1.3e+06 M⁻¹ s⁻¹. Besides, the Kd in assay [23] came out at 222 nM.

B13: Ab3 (antibody, human IgG1, kappa, V domains shown)
VH: B1 VH
VL: B1 VL with N33K, D34G
notes: made in HEK293 cells
In assay [15], B13 had a Kd of 65.8 nM, a koff of 0.198 s⁻¹ and a kon of 3.1e+06 M⁻¹ s⁻¹.

B14: Ab10 (antibody, human IgG1, kappa, V domains shown)
VH: B1 VH
VL: B1 VL with D34A
Turning to B14, the Kd stood at 5 nM in assay [10], 5.63 nM in assay [4] and 144 nM in assay [6].
